In patent US20230060388A1 (SHANGHAI HENLIUS BIOTECH, published 2023):
Read-outs that look alike come from different tables or passages of the source. Blank lines part the entries; values can stand above or below the binder they belong to.

Legend:
[1] = target: T1, human TIGIT expressed on cells (stably transfected Jurkat cells) (human, UniProt Q495A1 22-244); assay: flow cytometry on h-TIGIT transfected Jurkat cells, anti-human IgG Fc Alexa Fluor 488
T1 construct: Also used here for TIGIT on primary T cells in the MLR; also called h-TIGIT; T cell immunoreceptor with Ig and ITIM domains
T1 sequence: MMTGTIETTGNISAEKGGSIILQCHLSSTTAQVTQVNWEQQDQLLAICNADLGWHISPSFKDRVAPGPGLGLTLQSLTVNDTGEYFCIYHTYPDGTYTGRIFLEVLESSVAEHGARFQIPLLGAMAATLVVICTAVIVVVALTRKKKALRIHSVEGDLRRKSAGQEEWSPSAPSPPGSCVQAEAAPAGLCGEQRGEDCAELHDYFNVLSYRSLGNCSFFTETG
From the text: FIGS. 1A-1C depict whole cell binding of representative VHH bivalent antibodies to human TIGIT determined by flowcytometry assays. […] Y axis represents Mean Fluorescence Intensity of AlexaFlour 488. X axis represents antibody concentrations in nanomolar. 2B7, 1G1, 1C12, 3G6, 2B10, 3G7, 3G10, 13H11, and 15A5 are VHH clones of anti-human TIGIT. FIG. 1C is a schematic of the structure of a TIGIT VHH bivalent antibody.
Binding affinities of the bivalent clones to human TIGIT transfected Jurkat cells were confirmed by flowcytometry assays. Jurkat cells stably expressing human TIGIT and NFAT reporter gene were established. Specifically, Jurkat cells were transfected with human TIGIT expression vector by electroporation, and cells stably expressing human TIGIT were selected by 1 μg/ml puromycin during cell culture. Representative antibody clones were incubated at different concentrations with h-TIGIT stably expressing Jurkat cells (0.2×10^6/ml) in 100 μl/well in 96-well plate in FACS buffer (PBS with 1.5% FBS) for 30 min. After washing, Alexaflour 488 conjugated anti-human IgG Fc secondary antibody (Alexa Fluor® 488 AffiniPure Goat Anti-Human IgG, Fcγ fragment specific, Jackson labs, 1:500 dilution) was added and incubated for 30 min. After washing, mean fluorescence intensity was measured using CytoFlex (Beckman Coulter) by gating live cell population. Binding affinity was calculated using GraphPad Prism.

[2] = target: T1, human TIGIT expressed on cells (stably …); assay: as above; remark: listed apart in the source
From the text: FIGS. 3A and 3B depict whole cell binding of humanized 1C12 and 1G1 clones to human TIGIT determined by flowcytometry assays. 1C12-chimeric is an antibody with Llama VHH sequence of 1C12 clone and human IgG1 CH2 and CH3 domains, 1C12 (F-EREF), 1C12 (F-EREW) and 1C12 (F-GLEW) are humanized versions of 1C12 clone with difference of mutations in Framework 2. 1G1-chimeric is an antibody with Llama VHH sequence of 1G1 clone and human IgG1 CH2 and CH3 domains. 1G1 (F-G-ERES), 1G1 (F-A-ERES), 1G1 (F-A-EREW) and 1G1 (F-A-GLEW) are four different versions of humanized 1G1 clones with different mutations in framework 2. Y axis is values of Mean Fluorescence Intensity of AlexaFlour 488. X axis is values of antibody concentrations in nanomolar.
The binding affinities of the humanized bivalent antibodies to human TIGIT were determined by whole cell binding to h-TIGIT stably expressed on Jurkat cells. Briefly, antibodies were incubated with h-TIGIT transfected Jurkat cells (0.2×10⁶/well in 100 μl) for 30 min in FACS buffer. The cells were washed once, then incubated with anti-human IgG Fc AlexaFluor488 (1:500). Mean fluorescence intensity was determined by CytoFlex, and binding affinities of antibodies to h-TIGIT were calculated using non-liner regression by GraphPad Prism 8.0 as shown in FIG. 3A.

[3] = target: T1, human TIGIT expressed on cells (stably …); assay: cell-based or functional assay
[4] = target: T1, human TIGIT expressed on cells (stably …); assay: TIGIT WCB: whole cell binding, flow cytometry, h-TIGIT Jurkat cells; mean
Protocol: Affinity to TIGIT was further examined in whole cell binding assay using human TIGIT transfected Jurkat cells. Antibodies were incubated with h-TIGIT transfected Jurkat cells, and binding of antibodies to h-TIGIT was determined using a secondary anti-human-IgG Fc antibody conjugated with AlexaFluor488, which was detected by flow cytometry.

[5] = target: T1, human TIGIT expressed on cells (stably …); assay: flow cytometry (whole cell binding) on h-TIGIT transfected Jurkat cells; table under the graph, Average (n=3), SD 0.37
[6] = target: T1, human TIGIT expressed on cells (stably …); assay: flow cytometry (whole cell binding) on h-TIGIT transfected Jurkat cells; table under the graph, Average (n=3), SD 1.61
[7] = target: T1, human TIGIT expressed on cells (stably …); assay: flow cytometry (whole cell binding) on h-TIGIT transfected Jurkat cells; table under the graph, Average (n=3), SD 71.12
[8] = target: T1, human TIGIT expressed on cells (stably …); assay: flow cytometry (whole cell binding) on h-TIGIT transfected Jurkat cells; table under the graph, Average (n=3), SD 0.35
[9] = target: T2, human PD1 expressed on transfected Jurkat cells (human, UniProt Q15116 25-288); assay: cell-based or functional assay
T2 sequence (Q15116 25-288): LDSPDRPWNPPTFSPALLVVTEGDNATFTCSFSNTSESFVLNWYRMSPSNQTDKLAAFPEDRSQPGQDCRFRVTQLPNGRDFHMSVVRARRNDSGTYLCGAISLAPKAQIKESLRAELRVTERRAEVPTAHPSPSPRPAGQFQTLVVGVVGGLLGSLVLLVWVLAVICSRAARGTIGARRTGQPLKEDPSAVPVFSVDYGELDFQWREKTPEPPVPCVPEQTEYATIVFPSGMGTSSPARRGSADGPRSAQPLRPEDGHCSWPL

[10] = target: T2, human PD1 expressed on transfected …; assay: PD1 WCB: whole cell binding, flow cytometry, h-PD1 Jurkat cells; mean
Protocol: The binding affinities of the BsAbs to human PD1 were also determined by whole cell binding assays using human PD1 transfected Jurkat cells. Antibodies were incubated with h-PD1 transfected Jurkat cells, and binding was determined using a secondary anti-h-IgG antibody conjugated with AlexaFluor488, which was detected by flow cytometry.

[11] = target: T3, his-tagged recombinant human TIGIT ECD (human, UniProt Q495A1 22-138); assay: Octet, antibody loaded on the sensor, his-tagged h-PD1 ECD injected first, his-tagged h-TIGIT ECD second
T3 construct: also called h-TIGIT ECD (his-tagged); not shown: his tag
T3 sequence: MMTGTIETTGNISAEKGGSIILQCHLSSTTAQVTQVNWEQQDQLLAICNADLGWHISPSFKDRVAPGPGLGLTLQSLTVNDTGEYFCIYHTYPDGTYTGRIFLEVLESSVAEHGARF

[12] = target: T2, human PD1 expressed on transfected …; assay: flow cytometry (whole cell binding) on h-PD1 transfected Jurkat cells; table under the graph, Average (n=4), SD 0.18

- EC50 (read off the curve) [1]: ~0.09 nM
- EC50 (read off the curve) [2]: ~0.07 nM
B1: 1G1 bivalent VHH antibody (1G1-chimeric) (Fc fusion)
chain: QVQLVESGGGLVQAGDSLRLSCVASGPSFSSYPMGWFRQGPGKERESVAAISSDGRFTYYAASVKGRFTISKDNAKSAAFLQMNSLKPEDTAVYYCAARDSGSGYYSRAQWYDYWGQGTLVTVSS
notes: Llama VHH of 1G1 with human IgG1 CH2 and CH3; also called chimeric parental clone; not shown: human IgG1 CH2 and CH3 domains

- EC50 (Mean, nM), PD1 + TIGIT Combination Blockade Assay (double blockade) [3]: 1.15 nM
- EC50 (Mean, nM), TIGIT Blockade Assay [3]: 2.7 nM
- EC50 [4]: 0.81 nM
- EC50 [5]: 0.55 nM
B2: anti-TIGIT x anti-PD1 bispecific antibody, HCN version (bispecific antibody, human IgG4 S228P, kappa)
heavy: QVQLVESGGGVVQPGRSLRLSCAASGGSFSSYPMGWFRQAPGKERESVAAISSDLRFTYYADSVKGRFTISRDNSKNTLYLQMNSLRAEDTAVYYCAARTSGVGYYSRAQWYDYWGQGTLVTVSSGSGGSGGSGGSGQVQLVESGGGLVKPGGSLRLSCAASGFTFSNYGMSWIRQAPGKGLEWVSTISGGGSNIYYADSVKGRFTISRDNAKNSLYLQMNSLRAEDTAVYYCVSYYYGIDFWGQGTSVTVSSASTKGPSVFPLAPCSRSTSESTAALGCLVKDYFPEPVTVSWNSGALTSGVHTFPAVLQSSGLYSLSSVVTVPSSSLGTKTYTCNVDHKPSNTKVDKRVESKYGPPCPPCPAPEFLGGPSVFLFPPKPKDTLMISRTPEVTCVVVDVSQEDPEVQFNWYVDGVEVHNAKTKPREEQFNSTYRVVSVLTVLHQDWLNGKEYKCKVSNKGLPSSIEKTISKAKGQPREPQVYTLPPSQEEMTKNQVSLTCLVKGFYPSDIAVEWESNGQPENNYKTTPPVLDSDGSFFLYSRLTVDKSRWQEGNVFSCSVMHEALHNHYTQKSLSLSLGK
light: DIQMTQSPSSLSASVGDRVTITCKASQDVTTAVAWYQQKPGKAPKLLIYWASTRHTGVPSRFSGSGSGTDFTLTISSLQPEDFATYYCQQHYTIPWTFGGGTKLEIKRTVAAPSVFIFPPSDEQLKSGTASVVCLLNNFYPREAKVQWKVDNALQSGNSQESVTEQDSKDSTYSLSSTLTLSKADYEKHKVYACEVTHQGLSSPVTKSFNRGEC
notes: VHH 2A3 fused to the N-terminus of the anti-PD1 heavy chain; also called aTIGITxaPD1-HCN; BsAb HCN

- EC50 (Mean, nM), PD1 + TIGIT Combination Blockade Assay (double blockade) [3]: 2.61 nM
- EC50 (Mean, nM), TIGIT Blockade Assay [3]: 25.9 nM
- EC50 [4]: 4.93 nM
- EC50 [6]: 4.2 nM
B3: anti-TIGIT x anti-PD1 bispecific antibody, HCC version (bispecific antibody, human IgG4 S228P, kappa)
heavy: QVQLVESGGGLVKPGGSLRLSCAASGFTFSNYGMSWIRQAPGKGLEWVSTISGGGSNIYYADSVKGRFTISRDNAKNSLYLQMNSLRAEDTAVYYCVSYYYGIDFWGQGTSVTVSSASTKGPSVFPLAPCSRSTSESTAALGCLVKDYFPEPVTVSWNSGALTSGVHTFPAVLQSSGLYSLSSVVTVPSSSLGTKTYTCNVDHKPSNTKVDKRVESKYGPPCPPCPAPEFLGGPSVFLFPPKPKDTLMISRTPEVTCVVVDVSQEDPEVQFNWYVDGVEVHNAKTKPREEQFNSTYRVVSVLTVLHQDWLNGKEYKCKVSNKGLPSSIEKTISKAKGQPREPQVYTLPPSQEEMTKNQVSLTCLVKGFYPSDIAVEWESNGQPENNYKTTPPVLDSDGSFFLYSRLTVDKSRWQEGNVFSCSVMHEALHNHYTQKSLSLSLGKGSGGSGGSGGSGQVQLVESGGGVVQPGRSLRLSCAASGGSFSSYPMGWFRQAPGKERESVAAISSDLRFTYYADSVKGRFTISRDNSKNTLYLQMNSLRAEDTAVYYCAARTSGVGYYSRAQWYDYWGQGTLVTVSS
light: B2 light
notes: VHH 2A3 fused to the C-terminus of the anti-PD1 heavy chain; also called aTIGITxaPD1-HCC

- EC50 (read off the curve) [1]: ~0.04 nM
- EC50 (read off the curve) [2]: ~0.03 nM
B4: 1C12 bivalent VHH antibody (1C12-chimeric) (Fc fusion)
chain: QVQLVESGGGLVQTGDSLRLSCAASSRIFSRYGMGWFRQAPGKEREFVAAISWNGASTTYTDSVKGRFTISRDSAENTTYLQINSLRPEDTAVYYCAADPWGAVKLGTAEYEYWGQGTQVTVSS
notes: Llama VHH of 1C12 with human IgG1 CH2 and CH3; also called chimeric parental clone; not shown: human IgG1 CH2 and CH3 domains

- EC50 (Mean, nM), PD1 + TIGIT Combination Blockade Assay (double blockade) [3]: 0.48 nM
- EC50 (Mean, nM), TIGIT Blockade Assay [3]: 10.3 nM
- EC50 [4]: 192 nM
- EC50 [7]: 155 nM
B5: anti-TIGIT x anti-PD1 bispecific antibody, LCC version (bispecific antibody, human IgG4 S228P, kappa)
heavy: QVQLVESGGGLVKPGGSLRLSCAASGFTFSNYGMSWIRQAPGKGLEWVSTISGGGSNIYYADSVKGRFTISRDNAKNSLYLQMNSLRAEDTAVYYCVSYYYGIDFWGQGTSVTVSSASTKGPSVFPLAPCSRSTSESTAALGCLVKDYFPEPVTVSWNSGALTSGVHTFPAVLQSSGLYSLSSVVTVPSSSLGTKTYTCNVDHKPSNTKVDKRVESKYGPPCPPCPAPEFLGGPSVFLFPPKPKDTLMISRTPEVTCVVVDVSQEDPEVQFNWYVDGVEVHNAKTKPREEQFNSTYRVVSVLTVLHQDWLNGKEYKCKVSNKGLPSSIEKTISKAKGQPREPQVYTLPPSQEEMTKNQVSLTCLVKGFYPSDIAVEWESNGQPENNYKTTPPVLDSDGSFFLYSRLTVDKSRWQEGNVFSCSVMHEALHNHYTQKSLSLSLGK
light: DIQMTQSPSSLSASVGDRVTITCKASQDVTTAVAWYQQKPGKAPKLLIYWASTRHTGVPSRFSGSGSGTDFTLTISSLQPEDFATYYCQQHYTIPWTFGGGTKLEIKRTVAAPSVFIFPPSDEQLKSGTASVVCLLNNFYPREAKVQWKVDNALQSGNSQESVTEQDSKDSTYSLSSTLTLSKADYEKHKVYACEVTHQGLSSPVTKSFNRGECGSGGSGGSGGSGQVQLVESGGGVVQPGRSLRLSCAASGGSFSSYPMGWFRQAPGKERESVAAISSDLRFTYYADSVKGRFTISRDNSKNTLYLQMNSLRAEDTAVYYCAARTSGVGYYSRAQWYDYWGQGTLVTVSS
notes: VHH 2A3 fused to the C-terminus of the anti-PD1 light chain; also called aTIGITxaPD1-LCC; aTIGITxaPDI-LCC

- EC50 (Mean, nM), PD1 + TIGIT Combination Blockade Assay (double blockade) [3]: 1.23 nM
- EC50 (Mean, nM), TIGIT Blockade Assay [3]: 8.7 nM
- EC50 [4]: 0.75 nM
- EC50 [8]: 0.61 nM
B6: anti-TIGIT x anti-PD1 bispecific antibody, LCN version (bispecific antibody, human IgG4 S228P, kappa)
heavy: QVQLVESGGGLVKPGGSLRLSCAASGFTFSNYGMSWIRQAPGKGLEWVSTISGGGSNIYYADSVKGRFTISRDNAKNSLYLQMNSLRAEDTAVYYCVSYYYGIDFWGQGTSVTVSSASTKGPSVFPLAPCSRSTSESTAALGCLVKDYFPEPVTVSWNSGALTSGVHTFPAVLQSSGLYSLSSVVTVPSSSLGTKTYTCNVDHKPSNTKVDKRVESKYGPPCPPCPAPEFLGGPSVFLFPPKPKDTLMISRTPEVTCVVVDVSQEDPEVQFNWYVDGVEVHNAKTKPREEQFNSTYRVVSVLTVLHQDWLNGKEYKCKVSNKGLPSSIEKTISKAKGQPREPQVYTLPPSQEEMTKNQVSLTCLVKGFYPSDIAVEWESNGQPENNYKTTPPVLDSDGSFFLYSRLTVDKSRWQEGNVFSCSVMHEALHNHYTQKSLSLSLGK
light: QVQLVESGGGVVQPGRSLRLSCAASGGSFSSYPMGWFRQAPGKERESVAAISSDLRFTYYADSVKGRFTISRDNSKNTLYLQMNSLRAEDTAVYYCAARTSGVGYYSRAQWYDYWGQGTLVTVSSGSGGSGGSGGSGDIQMTQSPSSLSASVGDRVTITCKASQDVTTAVAWYQQKPGKAPKLLIYWASTRHTGVPSRFSGSGSGTDFTLTISSLQPEDFATYYCQQHYTIPWTFGGGTKLEIKRTVAAPSVFIFPPSDEQLKSGTASVVCLLNNFYPREAKVQWKVDNALQSGNSQESVTEQDSKDSTYSLSSTLTLSKADYEKHKVYACEVTHQGLSSPVTKSFNRGEC
notes: VHH 2A3 fused to the N-terminus of the anti-PD1 light chain; also called aTIGITxaPD1-LCN

- EC50 (Mean, nM), PD1 Blockade Assay [9]: 0.73 nM
- EC50 [10]: 0.6 nM
- EC50 [12]: 0.36 nM
B7: parental anti-PD1 monoclonal antibody (antibody, human IgG4 S228P, kappa, V domains shown)
VH: QVQLVESGGGLVKPGGSLRLSCAASGFTFSNYGMSWIRQAPGKGLEWVSTISGGGSNIYYADSVKGRFTISRDNAKNSLYLQMNSLRAEDTAVYYCVSYYYGIDFWGQGTSVTVSS
VL: DIQMTQSPSSLSASVGDRVTITCKASQDVTTAVAWYQQKPGKAPKLLIYWASTRHTGVPSRFSGSGSGTDFTLTISSLQPEDFATYYCQQHYTIPWTFGGGTKLEIKR
notes: Antibody from WO 2018/052818 A1; also called aPD1; parental mAb anti-PD1
- binding result [11]: no binding (tested: concentrations not printed)
